# Laboratory results published in US20250161478A1 (GLYKOS FINLAND, published 2025).
# Like-named read-outs stand apart in the source and are kept apart here.
# B1: FLCPeMcv (cysteine engineered flanvotumab HC N299C conjugated with MA-caproyl-Val-Cit-PAB-EDA-PNU), DAR 1.4 (antibody, human IgG1, kappa)
# heavy: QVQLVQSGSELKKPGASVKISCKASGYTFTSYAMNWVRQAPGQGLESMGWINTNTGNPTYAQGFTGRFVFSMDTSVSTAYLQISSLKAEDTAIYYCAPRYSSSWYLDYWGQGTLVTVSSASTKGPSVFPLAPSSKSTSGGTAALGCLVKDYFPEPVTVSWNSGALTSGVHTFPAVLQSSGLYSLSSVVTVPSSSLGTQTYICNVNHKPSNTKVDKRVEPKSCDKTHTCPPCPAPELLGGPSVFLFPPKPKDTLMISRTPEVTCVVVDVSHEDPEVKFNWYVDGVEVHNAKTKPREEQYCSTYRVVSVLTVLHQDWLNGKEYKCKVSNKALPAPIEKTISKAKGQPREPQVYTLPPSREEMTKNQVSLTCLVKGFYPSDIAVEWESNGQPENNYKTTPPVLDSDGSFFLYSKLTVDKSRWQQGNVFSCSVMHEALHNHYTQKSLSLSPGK
# light: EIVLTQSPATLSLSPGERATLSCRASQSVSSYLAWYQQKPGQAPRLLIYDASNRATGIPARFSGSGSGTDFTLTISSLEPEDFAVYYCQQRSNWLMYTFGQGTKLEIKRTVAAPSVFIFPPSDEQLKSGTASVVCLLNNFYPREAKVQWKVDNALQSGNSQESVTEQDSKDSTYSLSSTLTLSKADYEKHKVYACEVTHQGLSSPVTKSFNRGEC
# modifications: PeMcv linker-payload (MA-caproyl-Val-Cit-PAB-EDA-PNU) on the engineered cysteine (N299C); DAR 1.4
# B2: FLCPeMg (cysteine engineered flanvotumab HC N299C conjugated with MA-Ac-β-Ala-VS(GlcA)-EDA-PNU), DAR 2.2 (antibody, human IgG1, kappa)
# heavy: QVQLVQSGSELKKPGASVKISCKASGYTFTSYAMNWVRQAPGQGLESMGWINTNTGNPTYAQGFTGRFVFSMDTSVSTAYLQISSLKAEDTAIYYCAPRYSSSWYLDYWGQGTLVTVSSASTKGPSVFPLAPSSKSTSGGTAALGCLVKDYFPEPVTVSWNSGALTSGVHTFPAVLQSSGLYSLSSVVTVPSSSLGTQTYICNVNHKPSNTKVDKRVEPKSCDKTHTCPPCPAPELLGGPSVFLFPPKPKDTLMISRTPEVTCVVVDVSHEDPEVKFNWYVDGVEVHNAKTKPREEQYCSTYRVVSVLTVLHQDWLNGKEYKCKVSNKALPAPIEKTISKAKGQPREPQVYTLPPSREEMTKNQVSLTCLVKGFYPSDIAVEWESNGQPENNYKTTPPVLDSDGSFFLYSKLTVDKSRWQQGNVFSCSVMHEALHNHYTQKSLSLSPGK
# light: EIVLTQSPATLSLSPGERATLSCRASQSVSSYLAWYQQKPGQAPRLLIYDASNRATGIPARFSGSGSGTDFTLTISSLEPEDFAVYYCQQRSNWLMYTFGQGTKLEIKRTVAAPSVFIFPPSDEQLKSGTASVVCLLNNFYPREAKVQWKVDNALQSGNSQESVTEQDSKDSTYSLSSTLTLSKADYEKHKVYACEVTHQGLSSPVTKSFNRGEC
# modifications: PeMg linker-payload (maleimidoacetyl-β-Ala-Val-Ser(GlcA)-EDA-PNU) on the engineered cysteine (N299C); DAR 2.2
# B3: FLCPeMa (cysteine engineered flanvotumab HC N299C conjugated with MA-Ac-EDA-PNU), DAR 1.7 (antibody, human IgG1, kappa)
# heavy: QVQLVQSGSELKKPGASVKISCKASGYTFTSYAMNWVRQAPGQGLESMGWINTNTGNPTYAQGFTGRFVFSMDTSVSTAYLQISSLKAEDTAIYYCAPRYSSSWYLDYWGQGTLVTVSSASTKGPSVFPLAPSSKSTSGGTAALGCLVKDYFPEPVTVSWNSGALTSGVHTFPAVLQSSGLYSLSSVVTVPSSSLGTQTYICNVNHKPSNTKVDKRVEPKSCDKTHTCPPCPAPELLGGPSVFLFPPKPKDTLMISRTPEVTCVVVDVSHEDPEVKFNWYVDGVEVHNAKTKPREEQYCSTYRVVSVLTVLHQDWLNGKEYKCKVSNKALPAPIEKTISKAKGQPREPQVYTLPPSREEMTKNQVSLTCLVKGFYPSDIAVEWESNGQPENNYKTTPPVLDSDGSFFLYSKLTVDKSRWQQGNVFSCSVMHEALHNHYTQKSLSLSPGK
# light: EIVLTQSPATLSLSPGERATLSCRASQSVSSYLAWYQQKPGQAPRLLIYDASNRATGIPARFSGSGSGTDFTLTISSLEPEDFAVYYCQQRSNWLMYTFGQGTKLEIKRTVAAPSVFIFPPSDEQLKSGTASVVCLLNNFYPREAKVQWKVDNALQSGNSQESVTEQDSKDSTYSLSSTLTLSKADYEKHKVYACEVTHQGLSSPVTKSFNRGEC
# modifications: PeMa linker-payload (maleimidoacetyl-EDA-PNU) on the engineered cysteine (N299C); DAR 1.7
# B4: LNCAuM (cysteine engineered lintuzumab HC N296C-maleimidoacetyl-β-Ala-Val-Ser(Glc)-PAB-MMAU), DAR 1.7 (antibody, human IgG1, kappa, V domains shown)
# VH: QVQLVQSGAEVKKPGSSVKVSCKASGYTFTDYNMHWVRQAPGQGLEWIGYIYPYNGGTGYNQKFKSKATITADESTNTAYMELSSLRSEDTAVYYCARGRPAMDYWGQGTLVTVSS
# VL: DIQMTQSPSSLSASVGDRVTITCRASESVDNYGISFMNWFQQKPGKAPKLLIYAASNQGSGVPSRFSGSGSGTDFTLTISSLQPDDFATYYCQQSKEVPWTFGQGTKVEIKR
# modifications: AuM linker-payload (maleimidoacetyl-β-Ala-Val-Ser(Glc)-PAB-MMAU) on the engineered cysteine (N296C); DAR 1.7
# B5: LNCAuMb (cysteine engineered lintuzumab HC N296C conjugated with branched N-MAL-N-bis(Peg2)-Val-Ser(Glc)-PAB-MMAU), DAR 3.3 (antibody, human IgG1, kappa, V domains shown)
# VH: B4 VH
# VL: B4 VL
# modifications: branched AuMb linker-payload (N-MAL-N-bis(Peg2)-Val-Ser(Glc)-PAB-MMAU) on the engineered cysteine (N296C); DAR 3.3
# B6: GMAuM (gemtuzumab-maleimidoacetyl-β-Ala-Val-Ser(Glc)-PAB-MMAU), DAR 8 (antibody, human IgG4 S228P, kappa, V domains shown)
# VH: EVQLVQSGAEVKKPGSSVKVSCKASGYTITDSNIHWVRQAPGQSLEWIGYIYPYNGGTDYNQKFKNRATLTVDNPTNTAYMELSSLRSEDTAFYYCVNGNPWLAYWGQGTLVTVSS
# VL: DIQLTQSPSTLSASVGDRVTITCRASESLDNYGIRFLTWFQQKPGKAPKLLMYAASNQGSGVPSRFSGSGSGTEFTLTISSLQPDDFATYYCQQTKEVPWSFGQGTKVEVKR
# modifications: AuM linker-payload on reduced interchain cysteine; AuM linker-payload (maleimidoacetyl-β-Ala-Val-Ser(Glc)-PAB-MMAU) on reduced interchain cysteines; DAR 8.0 in all
# B7: CHPeD (glycoconjugated chimeric TA99-DBCO-Val-Ser(GlcA)-EDA-PNU ADC), DAR 2 (antibody, human IgG1, kappa, V domains shown)
# VH: EVQLQQSGAELVRPGALVKLSCKTSGFNIKDYFLHWVRQRPDQGLEWIGWINPDNGNTVYDPKFQGTASLTADTSSNTVYLQLSGLTSEDTAVYFCTRRDYTYEKAALDYWGQGTTVTVST
# VL: IQMSQSPASLSASVGETVTITCRASGNIYNYLAWYQQKQGKSPHLLVYDAKTLADGVPSRFSGSGSGTQYSLKISSLQTEDSGNYYCQHFWSLPFTFGSGTKLEIKR
# modifications: DBCO-Val-Ser(GlcA)-EDA-PNU on GalNAz of the trimmed Fc N-glycan; DAR 2
# B8: CHAuM (chimeric TA99-maleimidoacetyl-β-Ala-Val-Ser(Glc)-PAB-MMAU), DAR 6 (antibody, human IgG1, kappa, V domains shown)
# VH: B7 VH
# VL: B7 VL
# modifications: AuM linker-payload on reduced interchain cysteine; AuM linker-payload (maleimidoacetyl-β-Ala-Val-Ser(Glc)-PAB-MMAU) on reduced interchain cysteines; DAR 6 in all
# B9: FLCPeMala (cysteine engineered flanvotumab HC N299C conjugated with MA-Ac-β-Ala-EDA-PNU), DAR 2.0 (antibody, human IgG1, kappa)
# heavy: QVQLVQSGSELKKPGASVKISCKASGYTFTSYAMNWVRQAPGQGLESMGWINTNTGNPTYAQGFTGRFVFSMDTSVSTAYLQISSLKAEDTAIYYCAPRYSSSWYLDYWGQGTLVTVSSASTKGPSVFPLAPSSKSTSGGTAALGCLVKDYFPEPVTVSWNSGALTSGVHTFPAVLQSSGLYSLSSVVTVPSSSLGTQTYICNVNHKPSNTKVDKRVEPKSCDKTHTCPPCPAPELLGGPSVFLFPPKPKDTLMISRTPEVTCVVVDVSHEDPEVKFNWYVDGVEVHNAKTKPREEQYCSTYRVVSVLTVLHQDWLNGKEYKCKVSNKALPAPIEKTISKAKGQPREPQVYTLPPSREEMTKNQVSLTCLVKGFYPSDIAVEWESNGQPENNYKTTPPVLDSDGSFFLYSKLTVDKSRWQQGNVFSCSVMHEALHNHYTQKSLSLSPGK
# light: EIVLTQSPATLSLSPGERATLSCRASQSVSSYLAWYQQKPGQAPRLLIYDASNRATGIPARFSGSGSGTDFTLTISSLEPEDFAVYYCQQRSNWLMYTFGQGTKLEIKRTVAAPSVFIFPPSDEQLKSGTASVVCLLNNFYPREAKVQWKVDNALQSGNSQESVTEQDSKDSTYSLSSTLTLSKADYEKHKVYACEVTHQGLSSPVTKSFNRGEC
# modifications: PeMala linker-payload (maleimidoacetyl-β-Ala-EDA-PNU) on the engineered cysteine (N299C); DAR 2.0
# Key:
# Experiment in all cases: cell-based or functional assay
# [1] = molecular target: T1, TYRP1 antigen on human melanoma cells (IGR-1, SK-MEL-30, SK-MEL-28) (human, UniProt P17643 25-537)
# [2] = molecular target: T1, TYRP1 antigen on human melanoma cells …; remark: listed apart in the source
# [3] = molecular target: T1, TYRP1 antigen on human melanoma cells …; remark: listed apart in the source
# [4] = molecular target: T2, CD33 on leukemia cell lines (HL-60, MOLM-13, KG-1, K-562) (UniProt P20138 18-364, limits assumed)
# [5] = molecular target: T2, CD33 on leukemia cell lines (HL-60, …); remark: listed apart in the source
# [6] = molecular target: T2, CD33 on leukemia cell lines (HL-60, …); remark: listed apart in the source
# [7] = molecular target: T1, TYRP1 antigen on human melanoma cells …; remark: listed apart in the source
# [8] = molecular target: T1, TYRP1 antigen on human melanoma cells …; remark: listed apart in the source
# [9] = molecular target: T1, TYRP1 antigen on human melanoma cells …; remark: listed apart in the source
# T2 sequence (P20138 18-364 limits assumed): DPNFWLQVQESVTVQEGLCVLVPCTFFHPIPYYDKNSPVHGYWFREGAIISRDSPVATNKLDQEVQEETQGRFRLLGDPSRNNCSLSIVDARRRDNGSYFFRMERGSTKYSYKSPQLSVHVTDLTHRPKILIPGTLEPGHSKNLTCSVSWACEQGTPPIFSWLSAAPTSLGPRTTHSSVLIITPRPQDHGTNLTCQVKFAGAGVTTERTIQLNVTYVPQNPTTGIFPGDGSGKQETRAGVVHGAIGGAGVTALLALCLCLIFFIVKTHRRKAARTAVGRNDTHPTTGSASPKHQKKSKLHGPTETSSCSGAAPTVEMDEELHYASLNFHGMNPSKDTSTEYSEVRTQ
binder,measurement,setting,value
B1,"IC50, cell viability (PrestoBlue), IGR-1 cells",[1],0.414 to 0.716 nM
same,"IC50, cell viability (PrestoBlue), SK-MEL-30 cells",[1],2.8 to 4 nM
B2,"IC50, cell viability (PrestoBlue), IGR-1 cells",[2],0.417 to 0.484 nM
same,"IC50, cell viability (PrestoBlue), SK-MEL-30 cells",[2],4.3 to 10 nM
B3,"IC50, cell viability (PrestoBlue), IGR-1 cells",[3],1.2 nM
same,"IC50, cell viability (PrestoBlue), SK-MEL-30 cells",[3],22 nM
B4,"IC50, cytotoxicity, HL-60 cells, 5 days",[4],16 nM
B5,"IC50, cytotoxicity, HL-60 cells, 5 days",[5],2.2 nM
B6,"IC50, cytotoxicity, HL-60 cells, 5 days",[6],0.583 nM
same,"IC50, cytotoxicity, K-562 (low CD33) cells, 3 days",[6],241 nM
same,"IC50, cytotoxicity, MOLM-13 cells, 3 days",[6],0.206 nM
B7,"IC50, cell viability (PrestoBlue), IGR-1 cells",[7],1.4 nM
same,"IC50, cell viability (PrestoBlue), SK-MEL-28 cells",[7],55 nM
same,"IC50, cell viability (PrestoBlue), SK-MEL-30 cells",[7],5.7 nM
B8,"IC50, cell viability (PrestoBlue), IGR-1 cells",[8],2.2 nM
same,"IC50, cell viability (PrestoBlue), SK-MEL-28 cells",[8],> 300 nM
same,"IC50, cell viability (PrestoBlue), SK-MEL-30 cells",[8],48 nM
B9,"IC50, cell viability (PrestoBlue), IGR-1 cells",[9],0.649 nM
